From patent US20120315277A1, “Compositions and Methods for the Therapy and Diagnosis of Influenza” (priority 2011, published 2012)

Key:
[1] = molecular target: M2 protein on influenza A/Puerto Rico/8/34 (H1N1) virus particles (influenza A virus A/Puerto Rico/8/34 (H1N1)) (UniProt P06821); assay: FAb fragments on whole PR8 virus
[2] = molecular target: M2 protein on influenza A/Puerto Rico/8/34 (H1N1) virus particles (influenza A virus A/Puerto Rico/8/34 (H1N1)) (UniProt P06821); assay: SPR, Fab on influenza virus (A/Puerto Rico/8/34)
[3] = system: M2 (A/Hong Kong/483/97) expressed on CHO cells; type: binding, influenza A virus
[4] = system: Influenza A (A/Puerto Rico/8/34) virus; type: binding, influenza A virus H1N1
[5] = molecular target: T1, M2 protein on influenza A/Puerto Rico/8/34 (H1N1) virus particles (influenza A virus A/Puerto Rico/8/34 …, UniProt P06821 1-97); assay: SPR, Fab on influenza virus (A/Puerto Rico/8/34)
[6] = molecular target: T1, M2 protein on influenza A/Puerto …; assay: FAb fragments on whole PR8 virus

| Molecule | FACS M2-HK MFI [3] | Virus ELISA OD A450 [4] | other results |
| --- | --- | --- | --- |
| cH14C2 Fab |  |  | Kd [1]: 4000 nM; koff [1]: 0.00286 s⁻¹; kon [1]: 500 M⁻¹ s⁻¹; Kd [2]: 4000 nM; koff [2]: 0.0018 s⁻¹; kon [2]: 500 M⁻¹ s⁻¹ |
| 3136_G05 (antibody, V domains shown) VH: QVQLQESGPGLVKPSETLSLTCSVSGGSISSDFWSWIRQPPGKGLEWIGYVYNRGSTKYSPSLKSRVTISADMSKNQFSLNMSSVTAADTAVYYCAKNGRSSTSWGIDVWGKGTTVTVSS VL: DIQMTQSPSSLSASVGDRLTITCRASQSISTYLHWYQQKPGKAPKLLIYAASSLQSGVPSRFSGSRSGTDFTLTISSLQPDDFATYYCQQSYSPPLTFGPGTKVDMK | 109 |  |  |
| 3260_D19 (antibody, V domains shown) VH: DMQLVESGGGLVPPGGSLRLSCAASGFSVSDNYINWVRQAPGKGLDWVSVFYSADRTSYADSVKGRFTVSSHDSKNTVYLQMNSLRAEDTAVYYCARVQKSYYGMDVWGQGTTVTVSS VL: GIQMTQSPSSLSASVGDRVTITCRASQSISRYLNWYLQKPGKAPKLLISGASSLQSGVPSRFSGTGSGTEFTLTISSLQPEDFATYYCQQTFSIPLFGQGTKVEIK | 846 | 2.46 |  |
| 3242_P05 (antibody, V domains shown) VH: DMQLVESGGGLVPPGGSLRLSCAASGFSVSDNYINWVRQAPGKGLDWVSVFYSADRTSYADSVKGRFTVSSHDSKNTVYLQMNSLRAEDTAVYYCARVQKSYYGMDVWGQGTTVTVSS VL: GIQMTQSPSSLSASVGDRVTITCRASQSISRYLNWYLQKPGKAPKLLISGASSLQSGVPSRFSGTGSGTEFTLTISSLQPEDFATYYCQQTFSIPLFGQGTKVEIK | 596 | 0.50 |  |
| 3248_P18 (antibody, V domains shown) VH: QVQLQESGPGLVKPSETLSLTCTVSGGSISAYHWSWIRQPPGKGLEWIGHIFDSGSTYYNPSLKSRVTISLDASKNQLSLRLTSVTASDTAIYYCARPLGSRYYYGMDVWGQGTTVTVSS VL: DIQMTQSPSSLSASVGDRVTITCRASQSISRYLNWYQQKPGKAPKLLIYGASTLQNGAPSRFSGSGSGTDFTLTISSLQPEDSATYLCQQSYSVPAFGGGTKVEVK | 967 | 0.56 |  |
| 3259_J21 (antibody, V domains shown) VH: QVQLQESGPRVVRPSETLSLTCTVSGGSISSYNWIWIRQPPGKGLEWIGHIYDYGRTFYNSSLQSRPTISVDASKNQLSLRLTSVTASDTAVYYCARPLGILHYYAMDLWGQGTTVTVSS VL: DIQMTQSPLSVSVSVGDRVTIACRASQSIDKFLNWYQQKPGKAPKLLIYGASNLHSGAPSRFSASGSGTDFTLTITNIQTEDFATYLCQQSFSVPAFGGGTKVEIK | 1673 | 2.40 |  |
| TCN-032 Fab (Fab, V domains shown) VH: QVQLQESGPGLVKPSETLSLTCTVSGSSISNYYWSWIRQSPGKGLEWIGFIYYGGNTKYNPSLKSRVTISQDTSKSQVSLTMSSVTAAESAVYFCARASCSGGYCILDYWGQGTLVTVS VL: DIQMTQSPSSLSASVGDRVTITCRASQNIYKYLNWYQQRPGKAPKGLISAASGLQSGVPSRFSGSGSGTDFTLTITSLQPEDFATYYCQQSYSPPLTFGGGTRVEIK |  |  | Kd [5]: 3.2 nM; koff [5]: 0.0023 s⁻¹; kon [5]: 740000 M⁻¹ s⁻¹; Kd [6]: 3 nM; koff [6]: 0.0023 s⁻¹; kon [6]: 740000 M⁻¹ s⁻¹ |
| TCN-031 Fab (Fab, V domains shown) VH: EVQLVESGGGLVQPGGSLRISCAASGFTVSSNYMSWVRQAPGKGLEWVSVIYSGGSTYYADSVKGRFSFSRDNSKNTVFLQMNSLRAEDTAVYYCARCLSRMRGYGLDVWGQGTTVTVS VL: DIQMTQSPSSLSASVGDRVTITCRTSQSISSYLNWYQQKPGKAPKLLIYAASSLQSGVPSRFSGSGSGTDFTLTISGLQPEDFATYYCQQSYSMPAFGQGTKLEIK |  |  | Kd [5]: 14 nM; koff [5]: 0.014 s⁻¹; kon [5]: 1e+06 M⁻¹ s⁻¹; Kd [6]: 14 nM; koff [6]: 0.014 s⁻¹; kon [6]: 1e+06 M⁻¹ s⁻¹ |
| 3253_P10 (antibody, V domains shown) VH: QVQLQESGPGLLKPSDTLALTCTVSGGSITSDYWSWIRQPPGRGLDWIGFFYNGGSTKYNPSLKSRVTISADTSKNQLSLKLTSVTAADTGVYYCARHDAKFSGSYYVASWGQGTRVTVSS VL: DIQMTQSPSSLSASVGDRVTISCRASQSISTYLNWYQQQPGKAPKVLISGATDLQSGVPSRFSGSGSGTDFTLTISSLQPEDFATYYCQQSYNTPLIFGQGTKLEIK | 43 | 0.50 |  |
| 3244_I10 (antibody, V domains shown) VH: QVQLQESGPGLLKPSDTLALTCTVSGGSITSDYWSWIRQPPGRGLDWIGFFYNGGSTKYNPSLKSRVTISADTSKNQLSLKLTSVTAADTGVYYCARHDAKFSGSYYVASWGQGTRVTVSS VL: DIQMTQSPSSLSASVGDRVTISCRASQSISTYLNWYQQQPGKAPKVLIFGATNLQSGVPSRFSGSGSGTDFTLTISSLQPEDFATYYCQQSYNTPLIFGQGTKLEIK | 434 | 3.01 |  |
| 3243_J07 (antibody, V domains shown) VH: QVQLQESGPGLLKPSDTLALTCTVSGGSITSDYWSWIRQPPGRGLDWIGFFYNGGSTKYNPSLKSRVTISADTSKNQLSLKLTSVTAADTGVYYCARHDVKFSGSYYVASWGQGTRVTVSS VL: DIQMTQSPSSLSASVGDRVTISCRASQSISTYLNWYQQQPGKAPKVLISGATNLQSGVPSRFSGSGSGTDFTLTISSLQPEDFATYYCQQSYNTPLIFGQGTKLEIK | 131 | 2.94 |  |
| 3245_O19 (antibody, V domains shown) VH: EVQLVESGGGLVQPGGSLRLSCTASGLSVSSTYMNWVRQAPGKGLEWVSVFYSETRTYYADSVKGRFTVSRHNSNNTLYLQMNSLRVEDTAVYYCARVQRLSYGMDVWGQGTTVTVSS VL: DIQMTQSPSSLSASVGDRVTITCRASQSISTYLNWYQKRPGKAPKLLVYGASTLQSGVPSRFSGSGSGTDFTLTIASLQPEDSATYYCQQTYSIPLFGQGTRLEIK | 919 | 3.51 |  |
| 3244_H04 (antibody, V domains shown) VH: EVQLVESGGGLVQPGGSLRLSCTASGLSVSSTYMNWVRQAPGKGLEWVSVFYSETRTYYADSVKGRFTVSRHNSNNTLYLQMNSLRAEDTAVYYCARVQRLSYGMDVWGQGTTVTVSS VL: DIQMTQSPSSLSASVGDRVTITCRASQSISTYLNWYQKRPGKAPKLLVYGASSLQSGVPSRFSGSGSGTDFTLTIASLQPEDSAVYYCQQTYSIPLFGQGTRLEIK | 963 | 3.31 |  |
| 3139_P23 (antibody, V domains shown) VH: QVQLQESGPRLVKPSESLSLTCTVSGGSISNSFWGWIRQPPGEGLEWIGYVYNSGNTKYNPSLKSRVTISRDTSKSQLYMKLRSVTAADTAVYYCARHDDASHGYSISWGHGTLVTVSS VL: DIQMTQSPSSLSASVGDRVTITCRASQTISTYLNWYQQKSGKAPKLLIYAASGLQSGVPSRFSGSGSGTDFTLTISSLQPEDFATYFCQQSYNTPLTFGQGTKVEIK | 110 | 1.02 |  |
| 3241_G23 (antibody, V domains shown) VH: QVQLQQSGPGLVKPSQTLSLTCTVSGGPVSGGGYSWNWIRQRPGQGLEWVGFMFHSGSPRYNPTLKSRITISVDTSKNLVSLKLSSVTAADTAVYFCARVGQMDKYYAMDVWGQGTTVTVSS VL: DIQMTQSPSSLSSSVGDRVTITCRASQSIGAYVNWYQQKAGKAPQVLIFGASNLQSGVPSRFSGSGSGTDFTLTISSLQPEDFATYFCQQTYSTPITFGQGTRLEIK | 1697 | 3.02 |  |
| 3252_C13 (antibody, V domains shown) VH: QVQLQESGPGLVKPSETLSLTCTVSGASISSDYWSWIRLPPGKGLEWIGYIYNRGSTKYTPSLKSRVTISLDTAENQFSLRLRSVTAADTAIYYCARHVGGHTYGIDYWGQGTLVTVSS VL: DIQMTQSPSSLSASVGDRVTITCRASQSISNYLNWYQHKPGEAPKLLNYAASSLQSGVPSRFSASGSGTDFTLTISSLQPEDFATYYCQQSYNTPITFGQGTRLEIK | 449 |  |  |
| 3255_J06 (antibody, V domains shown) VH: QVQLQESGPGLVKPSETLSLTCTVSGASISSDYWSWIRLPPGKGLEWIGYIYNRGSTKYTPSLKSRVTISLDTAENQFSLRLRSVTAADTAVYYCARHVGGHTYGIDYWGQGTLVTVSS VL: DIQMTQSPSSLSASVGDRVTITCRASQSISNYLNWYQHKPGEAPKLLNYAASSLQSGVPSRFSASGSGTDFTLSISGLQPEDFATYYCQQSYNTPITFGPGTRLEIK | 442 |  |  |
| 3362_B11 (antibody, V domains shown) VH: QVQLQASGPGLVKPSETLSLTCTVSGDSITSGAYYWTWIRQHPGKGLEWIGYIYYSGNTYYNPSLKSRVTISLDTSKNQFSLKVNSVTAADTAVYYCARAASTSVLGYGMDVWGQGTTVTVSS VL: DIQMTQSPSSLSASVGDRVTITCRASQSISRYLNWYQQEPGKAPKLLVYAASSLQSGVPSRFSGSGSGTDFTLTISSLQPEDFATYYCQQSYSTPLTFGQGTRLEIK | 218 | 1.83 |  |
| 3420_I23 (antibody, V domains shown) VH: QVQLQESGPGLVKPSETLSVTCKVSGDSISSYSWSWIRQPPGKGLEWVGYLYYSGSTKYNPSLKSRTTISVDTSTNQLSLKLSFVTAADTAVYFCARTGSESTTGYGMDVWGQGTTVTVSS VL: DIQMTQSPSSLSASVGDRVTITCRASQSISTYLNWYQQKPGKAPKLLIYAASSLHSGVPSRFSGSGSGTDFALTISSLQPEDFATYYCQQSYSPPITFGQGTRLEIK | 112 |  |  |
